According to patent publication US20230257470A1 (published 2023):

T1: human FcγRIIa(R) (human, UniProt P12318 36-217)
T1 construct: also called FcgRIIaR; FcγRIIa type R
T1 chain: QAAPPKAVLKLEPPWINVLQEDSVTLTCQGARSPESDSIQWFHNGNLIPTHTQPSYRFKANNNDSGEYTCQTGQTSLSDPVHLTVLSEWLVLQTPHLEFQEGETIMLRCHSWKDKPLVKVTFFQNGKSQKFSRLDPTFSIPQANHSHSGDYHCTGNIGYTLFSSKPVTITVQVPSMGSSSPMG

T2: human FcγRIIa(H) (human, UniProt P12318 36-217)
T2 construct: also called FcgRIIaH; FcγRIIa type H
T2 sequence: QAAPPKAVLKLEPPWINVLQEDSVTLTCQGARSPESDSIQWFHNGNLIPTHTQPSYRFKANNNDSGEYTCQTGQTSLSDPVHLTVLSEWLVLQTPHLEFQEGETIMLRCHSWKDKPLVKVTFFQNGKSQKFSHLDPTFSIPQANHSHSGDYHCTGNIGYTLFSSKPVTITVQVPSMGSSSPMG

T3: human FcγRIIb (human, UniProt P31994 43-217, limits assumed)
T3 construct: also called FcgRIIb; FcγIIB
T3 sequence: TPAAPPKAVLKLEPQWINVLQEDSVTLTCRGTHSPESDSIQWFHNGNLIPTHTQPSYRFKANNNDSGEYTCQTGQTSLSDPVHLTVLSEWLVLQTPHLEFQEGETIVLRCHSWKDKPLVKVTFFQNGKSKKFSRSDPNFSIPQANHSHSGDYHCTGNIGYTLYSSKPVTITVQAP


Legend:
Assay in all cases: SPR (Biacore), antibody captured, FcγR as analyte; amount bound / that of GpH7-B3/GpL16-k0 x 100;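 further: FcγR binding response divided by the captured antibody amount before comparison, measured at 25 °C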
[1] = target: T4, human FcγRIa (human, UniProt P12314 16-292, limits assumed)
T4 construct: also called FcgRIa; CD64
Description: (§1) Interaction between each modified antibody and Fcγ receptor prepared in the manner described above was analyzed using the BIACORE™ T100 surface plasmon resonance system (GE Healthcare), BIACORE™ T200 surface plasmon resonance system (GE Healthcare), BIACORE™ A100 surface plasmon resonance system or BIACORE™ 4000 surface plasmon resonance system. HBS-EP+(GE Healthcare) was used for the running buffer, and measurements were carried out at 25° C. The chips used were chips in which antigen peptides, Protein A (Thermo Scientific), Protein A/G (Thermo Scientific) or Protein L (ACTIGEN® protein (Alltech or BioVision) were immobilized on the Series S Sensor Chip CM5 (GE Healthcare) or Series S Sensor Chip CM4 (GE Healthcare) by amine coupling, or chips in which preliminarily biotinylated antigen peptides were allowed to interact and then immobilized on the Series S Sensor Chip SA (certified) (GE Healthcare). The target antibodies were captured on these sensor chips, Fcγ receptor diluted with the running buffer was allowed to interact, followed by measurement of the amount of bound antibody. The amounts bound were compared between antibodies. However, since the amount of Fcγ receptor bound depends on the amount of captured antibody, the values used for comparison were first corrected by dividing the amount of Fcγ receptor bound by the captured amount of each antibody. Through reaction with 10 mM glycine-HCl at pH 1.5, the sensor chips were regenerated by washing off antibody captured on the sensor chips and used repeatedly.
(§2) Binding strength was evaluated according to the following method based on the results of analyzing the interaction with each FcγR. […] That value was then further multiplied by 100, and the resulting value was used as an indicator of relative binding activity to each FcγR.

[2] = target: T1, human FcγRIIa(R)
Description: as §1, §2

[3] = target: T2, human FcγRIIa(H)
Description: as §1, §2

[4] = target: T3, human FcγRIIb
Description: as §1, §2

[5] = target: T5, human FcγRIIIa(F) (human, UniProt P08637 17-208, limits assumed)
T5 construct: also called FcgRIIIaF; FcγRIIIa allotype F158
T5 sequence (P08637 other isoform, or with tags, fused parts or gaps limits assumed): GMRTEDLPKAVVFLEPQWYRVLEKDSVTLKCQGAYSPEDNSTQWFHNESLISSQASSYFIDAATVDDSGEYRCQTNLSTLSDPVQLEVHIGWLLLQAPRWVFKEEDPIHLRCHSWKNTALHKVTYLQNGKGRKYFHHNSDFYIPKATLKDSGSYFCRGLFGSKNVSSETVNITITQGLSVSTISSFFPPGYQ
Description: as §1, §2

T4 sequence (P12314 16-292 limits assumed): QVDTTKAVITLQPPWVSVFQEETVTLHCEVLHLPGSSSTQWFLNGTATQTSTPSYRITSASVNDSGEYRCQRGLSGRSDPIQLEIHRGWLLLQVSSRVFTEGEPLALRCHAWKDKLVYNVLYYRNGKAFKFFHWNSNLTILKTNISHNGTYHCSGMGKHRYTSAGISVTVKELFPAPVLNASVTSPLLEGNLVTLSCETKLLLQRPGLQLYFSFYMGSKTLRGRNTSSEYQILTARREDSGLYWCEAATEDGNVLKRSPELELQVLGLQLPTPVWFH

Binder | relative binding activity [1] | relative binding activity [2] | relative binding activity [3] | relative binding activity [4] | relative binding activity [5]
GpH7-B3/GpL16-k0 variant D270T (antibody, human IgG1, also called B3 variant; copies: 2 + 2) heavy: not shown light: DIVMTQSPLSLPVTPGEPASISCQASESLVHSNRNTYLHWYLQKPGQSPQLLIYKVSNRFSGVPDRFSGSGSGTDFTLKISRVEAEDVGVYYCSQNTHVPPTFGQGTKVEIE | 81 GpH7-B3/GpL16-k0 = 100 | 1 GpH7-B3/GpL16-k0 = 100 | 38 GpH7-B3/GpL16-k0 = 100 | 2 GpH7-B3/GpL16-k0 = 100 | –
GpH7-B3/GpL16-k0 variant D270W (antibody, human IgG1, also called B3 variant; copies: 2 + 2) heavy: not shown light: DIVMTQSPLSLPVTPGEPASISCQASESLVHSNRNTYLHWYLQKPGQSPQLLIYKVSNRFSGVPDRFSGSGSGTDFTLKISRVEAEDVGVYYCSQNTHVPPTFGQGTKVEIE | 74 GpH7-B3/GpL16-k0 = 100 | -2 GpH7-B3/GpL16-k0 = 100 | 38 GpH7-B3/GpL16-k0 = 100 | -2 GpH7-B3/GpL16-k0 = 100 | 7 GpH7-B3/GpL16-k0 = 100
GpH7-B3/GpL16-k0 variant D270A (antibody, human IgG1, also called B3 variant; copies: 2 + 2) heavy: not shown light: DIVMTQSPLSLPVTPGEPASISCQASESLVHSNRNTYLHWYLQKPGQSPQLLIYKVSNRFSGVPDRFSGSGSGTDFTLKISRVEAEDVGVYYCSQNTHVPPTFGQGTKVEIE | 87 GpH7-B3/GpL16-k0 = 100 | 3 GpH7-B3/GpL16-k0 = 100 | 66 GpH7-B3/GpL16-k0 = 100 | 5 GpH7-B3/GpL16-k0 = 100 | 23 GpH7-B3/GpL16-k0 = 100
GpH7-B3/GpL16-k0 variant D270Y (antibody, human IgG1, also called B3 variant; copies: 2 + 2) heavy: not shown light: DIVMTQSPLSLPVTPGEPASISCQASESLVHSNRNTYLHWYLQKPGQSPQLLIYKVSNRFSGVPDRFSGSGSGTDFTLKISRVEAEDVGVYYCSQNTHVPPTFGQGTKVEIE | 78 GpH7-B3/GpL16-k0 = 100 | -2 GpH7-B3/GpL16-k0 = 100 | 53 GpH7-B3/GpL16-k0 = 100 | -2 GpH7-B3/GpL16-k0 = 100 | –

Now from value to binder:

relative binding activity [1] | relative binding activity [2] | relative binding activity [3] | relative binding activity [4] | relative binding activity [5] | Binder
69 GpH7-B3/GpL16-k0 = 100 | 19 GpH7-B3/GpL16-k0 = 100 | 17 GpH7-B3/GpL16-k0 = 100 | – | 11 GpH7-B3/GpL16-k0 = 100 | GpH7-B3/GpL16-k0 variant S298W (antibody, human IgG1, also called B3 variant; copies: 2 + 2) heavy: not shown light: DIVMTQSPLSLPVTPGEPASISCQASESLVHSNRNTYLHWYLQKPGQSPQLLIYKVSNRFSGVPDRFSGSGSGTDFTLKISRVEAEDVGVYYCSQNTHVPPTFGQGTKVEIE
90 GpH7-B3/GpL16-k0 = 100 | 7 GpH7-B3/GpL16-k0 = 100 | 57 GpH7-B3/GpL16-k0 = 100 | 6 GpH7-B3/GpL16-k0 = 100 | 29 GpH7-B3/GpL16-k0 = 100 | GpH7-B3/GpL16-k0 variant D270M (antibody, human IgG1, also called B3 variant; copies: 2 + 2) heavy: not shown light: DIVMTQSPLSLPVTPGEPASISCQASESLVHSNRNTYLHWYLQKPGQSPQLLIYKVSNRFSGVPDRFSGSGSGTDFTLKISRVEAEDVGVYYCSQNTHVPPTFGQGTKVEIE
45 GpH7-B3/GpL16-k0 = 100 | -4 GpH7-B3/GpL16-k0 = 100 | 16 GpH7-B3/GpL16-k0 = 100 | -5 GpH7-B3/GpL16-k0 = 100 | 5 GpH7-B3/GpL16-k0 = 100 | GpH7-B3/GpL16-k0 variant D270K (antibody, human IgG1, also called B3 variant; copies: 2 + 2) heavy: not shown light: DIVMTQSPLSLPVTPGEPASISCQASESLVHSNRNTYLHWYLQKPGQSPQLLIYKVSNRFSGVPDRFSGSGSGTDFTLKISRVEAEDVGVYYCSQNTHVPPTFGQGTKVEIE
90 GpH7-B3/GpL16-k0 = 100 | 6 GpH7-B3/GpL16-k0 = 100 | 61 GpH7-B3/GpL16-k0 = 100 | 3 GpH7-B3/GpL16-k0 = 100 | 33 GpH7-B3/GpL16-k0 = 100 | GpH7-B3/GpL16-k0 variant D270L (antibody, human IgG1, also called B3 variant; copies: 2 + 2) heavy: not shown light: DIVMTQSPLSLPVTPGEPASISCQASESLVHSNRNTYLHWYLQKPGQSPQLLIYKVSNRFSGVPDRFSGSGSGTDFTLKISRVEAEDVGVYYCSQNTHVPPTFGQGTKVEIE
70 GpH7-B3/GpL16-k0 = 100 | 0 GpH7-B3/GpL16-k0 = 100 | 53 GpH7-B3/GpL16-k0 = 100 | -2 GpH7-B3/GpL16-k0 = 100 | 11 GpH7-B3/GpL16-k0 = 100 | GpH7-B3/GpL16-k0 variant D270H (antibody, human IgG1, also called B3 variant; copies: 2 + 2) heavy: not shown light: DIVMTQSPLSLPVTPGEPASISCQASESLVHSNRNTYLHWYLQKPGQSPQLLIYKVSNRFSGVPDRFSGSGSGTDFTLKISRVEAEDVGVYYCSQNTHVPPTFGQGTKVEIE
73 GpH7-B3/GpL16-k0 = 100 | 0 GpH7-B3/GpL16-k0 = 100 | 49 GpH7-B3/GpL16-k0 = 100 | -1 GpH7-B3/GpL16-k0 = 100 | 17 GpH7-B3/GpL16-k0 = 100 | GpH7-B3/GpL16-k0 variant D270S (antibody, human IgG1, also called B3 variant; copies: 2 + 2) heavy: not shown light: DIVMTQSPLSLPVTPGEPASISCQASESLVHSNRNTYLHWYLQKPGQSPQLLIYKVSNRFSGVPDRFSGSGSGTDFTLKISRVEAEDVGVYYCSQNTHVPPTFGQGTKVEIE
